Assay results from PMC9884297, “Iron-sulfur clusters are involved in post-translational arginylation” (Nature Communications, 2023).

Biological target: the molecule itself
Experiment: SEC; 120 mL gel filtration column, 25 mmol/L Tris pH 7.5, 100 mmol/L NaCl, 1 mmol/L TCEP, 0.35 mol/L glycerol; apparent oligomeric state

B1: Arg tRNA synthetase from E. coli (strain K12) (enzyme, UniProt P11875 1-577, looked up)
chain: MNIQALLSEKVRQAMIAAGAPADCEPQVRQSAKVQFGDYQANGMMAVAKKLGMAPRQLAEQVLTHLDLNGIASKVEIAGPGFINIFLDPAFLAEHVQQALASDRLGVATPEKQTIVVDYSAPNVAKEMHVGHLRSTIIGDAAVRTLEFLGHKVIRANHVGDWGTQFGMLIAWLEKQQQENAGEMELADLEGFYRDAKKHYDEDEEFAERARNYVVKLQSGDEYFREMWRKLVDITMTQNQITYDRLNVTLTRDDVMGESLYNPMLPGIVADLKAKGLAVESEGATVVFLDEFKNKEGEPMGVIIQKKDGGYLYTTTDIACAKYRYETLHADRVLYYIDSRQHQHLMQAWAIVRKAGYVPESVPLEHHMFGMMLGKDGKPFKTRAGGTVKLADLLDEALERARRLVAEKNPDMPADELEKLANAVGIGAVKYADLSKNRTTDYIFDWDNMLAFEGNTAPYMQYAYTRVLSVFRKAEIDEEQLAAAPVIIREDREAQLAARLLQFEETLTVVAREGTPHVMCAYLYDLAGLFSGFYEHCPILSAENEEVRNSRLKLAQLTAKTLKLGLDTLGIETVERM
notes: Arg tRNA synthetase, E. coli strain K12, UniProt P11875; A TEV-protease cleavage site (ENLYFQS) lies between the protein and the C-terminal (His)6 tag (pET-21a(+), NdeI/XhoI); also called EcArgRS; ArgRS
stoichiometry N: 6
